# According to US20240358834A1 (University of Pennsylvania, published 2024):
# T1: human CD19 protein with a biotinylated AviTag (Acrobiosystems) (human, UniProt P15391 20-291, biotinylated AviTag)
# T1 construct: Captured on streptavidin-coated microplate wells; also called biotinylated-AviTag-CD19; hCD19; not shown: AviTag
# T1 sequence (looked up): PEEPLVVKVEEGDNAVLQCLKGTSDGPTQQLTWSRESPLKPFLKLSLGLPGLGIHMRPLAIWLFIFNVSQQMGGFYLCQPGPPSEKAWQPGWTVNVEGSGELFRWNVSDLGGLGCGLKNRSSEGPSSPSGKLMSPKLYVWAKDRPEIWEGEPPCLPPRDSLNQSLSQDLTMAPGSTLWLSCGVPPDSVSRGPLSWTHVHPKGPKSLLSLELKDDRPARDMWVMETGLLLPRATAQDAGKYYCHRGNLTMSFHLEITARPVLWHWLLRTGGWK
# Target: T1, human CD19 protein with a biotinylated …
# Assay: phage ELISA, biotinylated AviTag CD19 on streptavidin wells; signal ratio to FMC63 standard
# From the text: To identify unique human CD19-binding monoclonal scFv from the panned libraries, individual phage antibody clones were expanded, assessed for binding to CD19 by ELISA, and subjected to nucleotide sequencing to identify those clones that were unique. A total of 84 scFvs were randomly selected from the panned libraries (70 from P3 and 14 from P4).
binder,measurement,value
"scFv 40 (scFv, Canine scFv (VL-linker-VH); also called P3-59B) scFv: QSVLTQPPSVSGSLGQKVTISCTGSSSSVGTHYVGWYQIPPGIGPRTVIYNNDYRPSGVPDRFSGSKSGNSATLTISGLQAEDEADYYCSSWDDSLGAYVLGSGTQLTILGGGSSRSSSSGGGGSGGGGELTLQESGPGLVKPSQTLSLTCAVSGGSVIRGYYWTWIRQRPGRGLEWMGYWAGSTDYNPAFQGRIFITAGTAKNQFSLEMTSMTTDDTAIYYCVGSLRGGWLFDNWGQGTLVTVSSASTTAPSVTSGQAGQHHHHHHGAYPYDVPDYAS",ELISA hCD19 (ratio FMC63),0.14 ratio to FMC63
"scFv 41 (scFv, Canine scFv (VL-linker-VH); also called P3-08A; P3-08B) scFv: QPVLTQPPSVSVSLGQTATISCSGESLSKYYAQWFQQKAGQAPVLVIYKDTERPSGIPDRFSGSSSGNTHTLTISGARAEDEADYYCESAVSTETVVFGGGTHLTVLGGGSSRSSSSGGGGSGGGGEVQLVETGGDLVMPAGSLRLSCVASGFTFSSSVMSWVRQAPGKGLEWVAGINGGGSFAAYGDAVKGRFTISRDNAKNTLYLQMNSLRAEDTAMYYCVGGGYMDFWGPGTSLFVSSESPSPPNLTSGQAGQHHHHHHGAYPYDVPDYAS",ELISA hCD19 (ratio FMC63),0.47 ratio to FMC63
"scFv 42 (scFv, Canine scFv (VL-linker-VH); also called P3-13) scFv: QSVLTQPTSVSGSLGQRVTISCSGSTNDIGIIGAAWYQQLPGKAPKLLLYSNKNRPSGVPDRFSGSNSGISATLTITGLQAEDEADYYCQSVDPALHTYVFGSGTQLTILGGGSSRSSSSGGGGSGGGGEVQLVEIGGDLVKPEGSLRLSCVVSGFTFSGYDMNWVRQAPGKGLQWVAYISSDGRRTVYTDAVKGRFTISRDNAKNTLYLQMNSLKSEDTAVYYCVKGGWLDFWGQGTLVTVSSESPSPPNLTSGQAGQHHHHHHGAYPYDVPDYAS",ELISA hCD19 (ratio FMC63),0.14 ratio to FMC63
"scFv 43 (scFv, Canine scFv (VL-linker-VH); also called P3-02; P3-19) scFv: DIVMTQNPLSLAVTPGELATISCRASQSLLHSDGKSYLNWYLQKPGQTPRPLIYEASRRFSGVSDRFNGSGSGTDFTLKISRVEAEDVGVYYCQQGLHFPPTFGAGTKVELKGGSSRSSSSGGGGSGGGGEVQLVESGGDLVKPGGSLRLSCAASGFTFTDYDMSWVRQAPGKGLQWVAAISYDGSSTYYTDAVKGRFTISRDNARNTLYLQMSSLRAEDTAMYYCVVSNMNLWGHGTSVFVSSASTTAPSVTSGQAGQHHHHHHGAYPYDVPDYAS",ELISA hCD19 (ratio FMC63),0.57 ratio to FMC63
"scFv 5 (scFv, Canine scFv (VL-linker-VH); also called scFv_05; P3-14) scFv: QPVLTQPPSVSGSLGQRVTISCSGSTNTIGVVGANWYQQLPGKSPKLLVYSDGVRPSGVPDRFSGSRSANSDTLTITGLQAEDEADYYCQSFDSTHNAIVFGGGTHLTVLGGGSSRSSSSGGGGSGGGGEVQLVETGGDLVKPAGSLRLSCAASGFPFSGYSMTWVRQAPEKGLQLVAGINSDGSHTYYTDDVKGRFTISRDNTKYILYLQMNSLRAEDTAMYYCGSHSWGNFHYWGQGTLVTVSSESPSPPNLTSGQAGQHHHHHHGAYPYDVPDYAS",ELISA hCD19 (ratio FMC63),0.48 ratio to FMC63
"scFv 7 (scFv, Canine scFv (VL-linker-VH); also called scFv_07; P3-47) scFv: SYELTQPPSMSAALGQRVTISCTGSNTNIGSGYDVQWYQQVPGKSPTPLIYGNTNRPSGVPVRFSGSKSGNTATLTITGIQAEDEADYYCQSYDDNFDGHHVFGSGTQLTVLGGGSSRSSSSGGGGSGGGGEVQLVESGGDLVKPAGSLRLSCVASGFTFSNYGMNWVRQAPGKGLQWVAGINSGGSTTTYADVVKGRFTISRDNAKNTLYLQMNSLGAEDTAVYYCARVDYSSSWLVDYWGQGTLVTVSSASTTAPSVTSGQAGQHHHHHHGAYPYDVPDYAS",ELISA hCD19 (ratio FMC63),0.83 ratio to FMC63
"scFv 8 (scFv, Canine scFv (VL-linker-VH); also called scFv_08; P3-16) scFv: QSVLTQPASVSGSLGQKVTISCTGSRSNIGANYVGWYQQVPGIGPRTVIFGYNYRPSGVPDRFSSSKSGNSATLTISGLQAEDEAEYYCSSWDDSLRGTVFGSGTQLTVLGGGSSRSSSSGDGGSGGGGEVQLVESGGDLVKPGESLRLSCVASGFTFSSYGMSWVRQSPGKGLQWVADISYGGGTYYADAVKGRFTISRDNARNTVYLQMNSLRAEDTAVYYCASQWGDWGHFEYWGQGTLVTVSSASTTAPSVTSGQAGQHHHHHHGAYPYDVPDYAS",ELISA hCD19 (ratio FMC63),0.41 ratio to FMC63
"scFv 9 (scFv, Canine scFv (VL-linker-VH); also called scFv_09; P3-41) scFv: QPVLTQPPSVSAALGQRVTLSCTGSKTNIGSGYDVQWYQQFPGKSPKTIIYGNSNRFSGVPARFSGSKSGSIATLTITGIQAEDEADYYCQSFDDNVDGYVFGSGTQLTILGGGSSRSSSSGGGGSGGGGEVQLVESGGDLVKPGGSLRLSCVASGFTFSSDSIHWVRQAPGKGLQWVAYINSGGSTTYYADAVKGRFTISRDNARNTVYLKMNSLRAEDTAVYYCAKDSGFGSWYLESWGQGTLVTVSPASTTAPSVTSGQAGQHHHHHHGAYPYDVPDYAS",ELISA hCD19 (ratio FMC63),0.71 ratio to FMC63
